Our source for the Kd values is patent publication US20190046655A1 (ARBELE, published 2019).

In this assay the target is T1, cadherin-17 (CDH17), ELISA antigen (UniProt Q12864 23-787, limits assumed).
T1 construct: also called liver-intestine cadherin
Briefly: ELISA.

B1: Lic3 scFv (scFv, V domains shown)
VH: EVQLVESGGGLVKPGGSLKLSCAASGFSFSDYYMYWVRQAPEKRLEWVASISFDGTYTYYTDRVKGRFTISRDNAKNNLYLQMSSLKSEDTAMYYCARDRPAWFPYWGQGTLVTVSA
VL: DVLMTQIPLSLTVSLGDQASISCRSSQSIVHSNGNTYLEWYLQRPGQSPKLLIYKVSNRFSGVPDRFSGSGSGTDFTLKISRVEAEDLGVYYCFQGSHVPLTFGAGTKLELK
notes: Tested as a single-chain Fv; also called scFv lic 3; mouse CDH17 antibody Lic3 scFv
In general, Kd refers to the free concentration of one partner at which half of the binding sites on the other are occupied at equilibrium, for simple one-to-one binding. In turn, B1 returned a Kd of 11.9 nM.

B2: Lic5 scFv (scFv, V domains shown)
VH: EVQLEESGGGLVKPGGSLKLPCAASGSSFSDFYMYWVRQTPEKRLEWVASISFDGTYTYYTDRVKGRFTISRDNAKNNLYLQMSSLKSEDTAMYYCARDRPAWFPYWGQGTLVTVSA
VL: DIVLTQTTLSLNVSLGDQASISCRSSQSIVHSNGNTYLEWYLQRPGQSPKLLIYKVSNRFSGVPDRFSGSGSGTDFTLKISRVEAEDLGVYYCFQGSHVPLTFGAGTKLELKR
notes: Tested as a single-chain Fv; also called scFv lic5; mouse CDH17 antibody Lic5 scFv
B2 returned a dissociation constant Kd of 22.1 nM.
